Measurements from article PMC8183676 (Molecular cell, 2020).
Blank lines part the entries; values can stand above or below the binder they belong to.

What was measured:
TRIM14^CC-PSpry = biological target: T1, TRIM14^CC-PSpry (human, UniProt Q14142 59-442); assay: pull-down
T1 sequence (looked up): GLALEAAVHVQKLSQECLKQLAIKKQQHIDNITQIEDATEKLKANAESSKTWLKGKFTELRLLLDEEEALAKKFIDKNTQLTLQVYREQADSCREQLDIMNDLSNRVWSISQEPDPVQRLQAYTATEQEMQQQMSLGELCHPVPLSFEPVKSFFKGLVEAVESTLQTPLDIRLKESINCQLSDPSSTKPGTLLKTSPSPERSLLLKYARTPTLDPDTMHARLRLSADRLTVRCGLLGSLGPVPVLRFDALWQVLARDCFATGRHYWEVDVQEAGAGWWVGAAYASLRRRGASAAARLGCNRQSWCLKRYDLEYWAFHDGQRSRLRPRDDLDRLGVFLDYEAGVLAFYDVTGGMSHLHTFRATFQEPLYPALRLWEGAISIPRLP

LGP2 [1] = biological target: T2, LGP2 (UniProt Q96C10 1-678); assay: EMSA
T2 sequence: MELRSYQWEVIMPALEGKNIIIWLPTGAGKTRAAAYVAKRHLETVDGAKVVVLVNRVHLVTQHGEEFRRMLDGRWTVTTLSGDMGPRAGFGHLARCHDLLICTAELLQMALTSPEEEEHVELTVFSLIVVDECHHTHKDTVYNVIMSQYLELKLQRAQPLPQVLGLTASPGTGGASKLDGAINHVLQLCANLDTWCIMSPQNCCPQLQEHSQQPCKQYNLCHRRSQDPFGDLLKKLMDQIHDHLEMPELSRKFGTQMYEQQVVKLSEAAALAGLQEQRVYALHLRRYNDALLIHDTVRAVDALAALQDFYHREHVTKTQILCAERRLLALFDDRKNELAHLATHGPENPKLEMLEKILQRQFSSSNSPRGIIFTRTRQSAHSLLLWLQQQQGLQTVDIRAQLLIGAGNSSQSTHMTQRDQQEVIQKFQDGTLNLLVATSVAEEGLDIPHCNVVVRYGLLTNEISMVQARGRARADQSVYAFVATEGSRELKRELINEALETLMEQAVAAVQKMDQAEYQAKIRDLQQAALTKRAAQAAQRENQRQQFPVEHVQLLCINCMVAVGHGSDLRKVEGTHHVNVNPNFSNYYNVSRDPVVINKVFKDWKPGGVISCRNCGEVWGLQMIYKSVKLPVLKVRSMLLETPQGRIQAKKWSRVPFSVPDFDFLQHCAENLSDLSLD

LGP2 [2] = biological target: T3, LGP2 (human, UniProt Q96C10 1-678); assay: native gel or EMSA
T3 sequence (looked up): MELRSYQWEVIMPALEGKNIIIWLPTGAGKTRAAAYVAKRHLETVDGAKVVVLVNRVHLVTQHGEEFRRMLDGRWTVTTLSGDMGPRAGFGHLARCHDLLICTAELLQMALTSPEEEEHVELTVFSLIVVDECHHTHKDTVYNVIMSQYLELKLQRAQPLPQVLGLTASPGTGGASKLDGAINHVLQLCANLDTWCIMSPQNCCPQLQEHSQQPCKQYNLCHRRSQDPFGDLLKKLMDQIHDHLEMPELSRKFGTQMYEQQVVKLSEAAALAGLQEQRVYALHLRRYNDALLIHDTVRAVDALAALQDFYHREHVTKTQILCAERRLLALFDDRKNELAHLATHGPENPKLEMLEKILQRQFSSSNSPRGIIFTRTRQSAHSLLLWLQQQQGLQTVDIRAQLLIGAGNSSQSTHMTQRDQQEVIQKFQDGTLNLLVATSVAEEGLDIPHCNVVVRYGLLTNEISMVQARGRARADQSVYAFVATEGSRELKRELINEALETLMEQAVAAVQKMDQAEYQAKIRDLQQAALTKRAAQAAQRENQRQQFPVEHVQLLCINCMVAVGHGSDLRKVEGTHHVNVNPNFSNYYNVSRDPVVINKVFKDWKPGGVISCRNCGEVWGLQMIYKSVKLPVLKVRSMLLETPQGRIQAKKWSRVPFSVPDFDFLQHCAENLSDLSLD

- binding result (TRIM14^CC-PSpry): binds
B1: GST-LGP2^Hel2i2 (domain or fragment, human, UniProt Q96C10 211-487, looked up)
chain: SQQPCKQYNLCHRRSQDPFGDLLKKLMDQIHDHLEMPELSRKFGTQMYEQQVVKLSEAAALAGLQEQRVYALHLRRYNDALLIHDTVRAVDALAALQDFYHREHVTKTQILCAERRLLALFDDRKNELAHLATHGPENPKLEMLEKILQRQFSSSNSPRGIIFTRTRQSAHSLLLWLQQQQGLQTVDIRAQLLIGAGNSSQSTHMTQRDQQEVIQKFQDGTLNLLVATSVAEEGLDIPHCNVVVRYGLLTNEISMVQARGRARADQSVYAFVATEGS

B2: 15 bp dsRNA (dsRNA)
RNA 1: AGGGCCCGGGAUGCU
RNA 2: AGCAUCCCGGGCCCU
- binding result (LGP2 [1]): binds

- binding result (LGP2 [2]): binds
B3: GST-TRIM14^PSpry (domain or fragment, human, UniProt Q14142 238-442, looked up)
chain: QLSDPSSTKPGTLLKTSPSPERSLLLKYARTPTLDPDTMHARLRLSADRLTVRCGLLGSLGPVPVLRFDALWQVLARDCFATGRHYWEVDVQEAGAGWWVGAAYASLRRRGASAAARLGCNRQSWCLKRYDLEYWAFHDGQRSRLRPRDDLDRLGVFLDYEAGVLAFYDVTGGMSHLHTFRATFQEPLYPALRLWEGAISIPRLP
